Test results published in publication PMC11655906, “Required minimal protein domain of flower for synaptobrevin2 endocytosis in cytotoxic T cells” (Cellular and Molecular Life Sciences: CMLS, 2024).
Where “and” joins values, the source holds several entries; their conditions need not be identical. Equal entries are not always repeated.

B1: mouse Flower isoform 2, full-length form, with C-terminal mTFP (mFwe2-mTFP) (natural protein, UniProt Q8BG21-1 1-171, looked up)
chain: MSGSGAAGAAAGPAPPAQEEGMTWWYRWLCRLAGVLGAVSCAISGLFNCVTIHPLNIAAGVWMIMNAFILLLCEAPFCCQFVEFANTVAEKVDRLRSWQKAVFYCGMAIVPIVMSLTLTTLLGNAIAFATGVLYGLSALGKKGDAISYARIQQQRQQADEEKLAETFEGEL
notes: mouse Flower (Fwe); also called Mouse Flower 2; source: Fwe KO mouse CTLs, transfected with pMAX plasmid, in lysate
B2: mouse Flower isoform 1 with C-terminal mTFP (mFwe1-mTFP) (natural protein, UniProt Q8BG21-3 1-106, looked up)
chain: MSGSGAAGAAAGPAPPAQEEGMTWWYRWLCRLAGVLGAVSCAISGLFNCVTIHPLNIAAGVWMIMNAFILLLCEAPFCCQFVEFANTVAEKVDRLRSWQKAVFYCG
notes: Whole isoform cDNA synthesised (BioCAT) and subcloned into pMAX-mTFP; also called Mouse Fwe1; source: Fwe KO mouse CTLs, transfected with pMAX plasmid, in lysate
B3: Drosophila Flower isoform Ubi with C-terminal mTFP (dUbi-mTFP) (natural protein, UniProt Q95T12-1 1-194, looked up)
chain: MSFAEKITGLLARPNQQDPIGPEQPWYLKYGSRLLGIVAAFFAILFGLWNVFSIITLSVSCLVAGILQMVAGFVVMLLEAPCCFVCFGQVNEIAEKVESKPLYFRAGLYIAMAIPPIILCFGLASLFGSGLIFGTGVVYGMMALGKKASAEDMRAAAQQTFGGNTPAQTNDRAGIVNNAQPFSFTGAVGTDSNV
notes: Drosophila Flower (Fwe), ubiquitous splice isoform dUbi; the three Drosophila isoforms are identical in aa 1-146 and differ in the C-terminus; also called dFwe-Ubi-mTFP; Drosophila Ubi isoform; source: Fwe KO mouse CTLs, transfected with pMAX plasmid, in lysate
B4: human Flower isoform 4 with C-terminal mTFP (hFwe4-mTFP) (natural protein, UniProt Q9UGQ2-1 1-172, looked up)
chain: MSSSGGAPGASASSAPPAQEEGMTWWYRWLCRLSGVLGAVSCAISGLFNCITIHPLNIAAGVWMIMNAFILLLCEAPFCCQFIEFANTVAEKVDRLRSWQKAVFYCGMAVVPIVISLTLTTLLGNAIAFATGVLYGLSALGKKGDAISYARIQQQRQQADEEKLAETLEGEL
notes: human Flower (CACFD1) isoform hFwe4, contains exon 3 and both the YRWL and YARI motifs; 93% identical to mFwe2; also called human isoform Fwe4; source: Fwe KO mouse CTLs, transfected with pMAX plasmid, in lysate
B5: mouse Flower isoform 3 with C-terminal mTFP (mFwe3-mTFP) (natural protein, UniProt Q8BG21-2 1-128, looked up)
chain: MSGSGAAGAAAGPAPPAQEEGMTWWYRWLCRLAGVLGAVSCAISGLFNCVTIHPLNIAAGVWMIMNAFILLLCEAPFCCQFVEFANTVAEKVDRLRSWQKAVFYCGHGEALRGAWPDVRLPNRNTISL
notes: source: Fwe KO mouse CTLs, transfected with pMAX plasmid, in lysate

Target: the molecule itself
Assay: native gel or EMSA; native PAGE (4-16% Bis-Tris, G-250 additive) of lysates of transfected Fwe KO mouse CTLs (modified RIPA: 50 mM Tris pH 7.5, 50 mM NaCl, 1% Triton-X-100, 1 mM EDTA), western blot with anti-DsRed recognising mTFP; oligomeric state read from band size

Q: How did the “stoichiometry N” value turn out when B1 was run?
A: Its value is 4 and 2.

Q: B2 was tested. Which “stoichiometry N” value did it give?
A: Its value is 4 and 6 and 2.

Q: For B3, which “stoichiometry N” value is on record?
A: The value was 2 and 4.

Q: Which “stoichiometry N” value does the source give for B4 here?
A: The value was 2 and 4.

Q: For B5, which “stoichiometry N” value is on record?
A: The value was 2 and 4 and 6.
